± gives the standard deviation of the averaged measurements.
Key:
Saccharomyces cerevisiae [1] = test: protein stability index of tFT-peptide fusion (C-terminal peptide) (PSI (0-1 scale)); higher = more stable (slower turnover)
Protocol: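 MPS profiling in S. cerevisiae of the tFT-X12 degron library: putative degron peptides plus stable controls, 12 aa, fused to the C-terminus of a sfGFP-mCherry timer. Cells are FACS-sorted into 8 mCherry/sfGFP bins and deep-sequenced. PSI runs from 0 (unstable) to 1 (stable). Backgrounds are wild type, das1Δ and doa10Δ at 30 °C, and wild type, das1Δ, cdc34-1 and cdc53-1 at 37 °C; 2-3 technical replicates each.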

Saccharomyces cerevisiae [2] = test: as above; settings: genetic background: wild type; temperature: 30 C
[3] = genetic background: cdc34-1, temperature: 37 C
[4] = genetic background: cdc53-1, temperature: 37 C
[5] = genetic background: das1 deletion, temperature: 30 C
[6] = genetic background: das1 deletion, temperature: 37 C
[7] = genetic background: doa10 deletion, temperature: 30 C
[8] = genetic background: wild type, temperature: 30 C
[9] = genetic background: wild type, temperature: 37 C
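Note: PSI is a weighted mean of sequencing reads over stability bins, variants kept only with over 10 reads, mCherry proximal and sfGFP distal, peptide attached via GGGS linker.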

| Sequence | protein stability index (Saccharomyces cerevisiae [1]; [3]) | protein stability index (Saccharomyces cerevisiae [1]; [4]) | protein stability index (Saccharomyces cerevisiae [1]; [5]) | protein stability index (Saccharomyces cerevisiae [1]; [6]) | protein stability index (Saccharomyces cerevisiae [1]; [7]) | protein stability index (Saccharomyces cerevisiae [1]; [8]) | protein stability index (Saccharomyces cerevisiae [1]; [9]) | protein stability index (Saccharomyces cerevisiae [2]) |
| --- | --- | --- | --- | --- | --- | --- | --- | --- |
| FFCFFWLFHWFG | 0.512 ± 0.012 | 0.566 ± 0.022 | 0.485 ± 0.016 | 0.5875 ± 0.0025 | 0.4643 ± 0.0022 | 0.451 ± 0.015 | 0.5356 ± 0.0044 | 0.443 ± 0.028 |
| FFCSLIISRFLL | 0.542 ± 0.035 | 0.608 ± 0.014 | 0.511 ± 0.018 | 0.62 ± 0.02 | 0.139 ± 0.012 | 0.168 ± 0.033 | 0.299 ± 0.0054 | 0.214 ± 0.04 |
| FFFFFIHFLCYF | 0.239 ± 0.019 | 0.208 ± 0.0039 | 0.249 ± 0.034 | 0.383 ± 0.021 | 0.288 ± 0.0065 | 0.239 ± 0.047 | 0.357 ± 0.0053 | 0.31 ± 0.035 |
| FFFFFLLFFLRV | 0.229 ± 0.027 | 0.247 ± 0.007 | 0.303 ± 0.046 | 0.343 ± 0.018 | 0.313 ± 0.005 | 0.233 ± 0.018 | 0.313 ± 0.0043 | 0.303 ± 0.04 |
| FFFFLVPVHCVI | 0.261 ± 0.029 | 0.371 ± 0.028 | 0.261 ± 0.035 | 0.452 ± 0.021 | 0.239 ± 0.023 | 0.249 ± 0.024 | 0.406 ± 0.018 | 0.358 ± 0.02 |
| FFFFSVHLSFLD | 0.122 ± 0.0052 | 0.295 ± 0.018 | 0.178 ± 0.04 | 0.365 ± 0.029 | 0.179 ± 0.0073 | 0.176 ± 0.028 | 0.305 ± 0.024 | 0.31 ± 0.013 |
| FFFLILFPLSYS | 0.4518 ± 0.0042 | 0.526 ± 0.044 | 0.376 ± 0.028 | 0.5472 ± 0.0028 | 0.3517 ± 0.0033 | 0.372 ± 0.0098 | 0.513 ± 0.041 | 0.49 ± 0.072 |
| FFFLVRLCRLCV | 0.478 ± 0.043 | 0.558 ± 0.02 | 0.46 ± 0.019 | 0.575 ± 0.025 | 0.266 ± 0.0098 | 0.261 ± 0.011 | 0.353 ± 0.0078 | 0.292 ± 0.055 |
| FFIMFFDFWGYF | 0.378 ± 0.01 | 0.462 ± 0.021 | 0.335 ± 0.023 | 0.624 ± 0.075 | 0.319 ± 0.0034 | 0.373 ± 0.047 | 0.57 ± 0.028 | 0.447 ± 0.079 |
| FFLRFGLFLFTL | 0.491 ± 0.0061 | 0.5109 ± 0.004 | 0.429 ± 0.017 | 0.564 ± 0.0091 | 0.4004 ± 0.0018 | 0.367 ± 0.05 | 0.4928 ± 0.0041 | 0.421 ± 0.049 |
| FFSCFFFSVLYR | 0.2699 ± 0.00059 | 0.214 ± 0.018 | 0.302 ± 0.042 | 0.425 ± 0.031 | 0.469 ± 0.022 | 0.302 ± 0.029 | 0.384 ± 0.018 | 0.377 ± 0.035 |
| FFVYRFFSLSVC | 0.146 ± 0.0021 | 0.209 ± 0.0047 | 0.13 ± 0.032 | 0.247 ± 0.0028 | 0.0301 ± 0.0028 | 0.0256 ± 0.0079 | 0.0647 ± 0.011 | 0.07222 ± 0.00031 |
| FGCCLYFCFWGL | 0.455 ± 0.0063 | 0.519 ± 0.011 | 0.386 ± 0.026 | 0.524 ± 0.0085 | 0.3524 ± 0.0025 | 0.372 ± 0.018 | 0.491 ± 0.016 | 0.433 ± 0.005 |
| FHLVIYWCVRGP | 0.337 ± 0.013 | 0.453 ± 0.088 | 0.299 ± 0.035 | 0.45 ± 0.0086 | 0.2623 ± 0.0021 | 0.281 ± 0.053 | 0.474 ± 0.034 | 0.428 ± 0.034 |
| FICYDRILTVYY | 0.479 ± 0.0097 | 0.564 ± 0.045 | 0.394 ± 0.029 | 0.524 ± 0.026 | 0.369 ± 0.043 | 0.368 ± 0.024 | 0.489 ± 0.031 | 0.454 ± 0.034 |
| FIVVSFCFFLFF | 0.331 ± 0.06 | 0.382 ± 0.0069 | 0.301 ± 0.023 | 0.4351 ± 0.0036 | 0.31 ± 0.03 | 0.263 ± 0.045 | 0.414 ± 0.013 | 0.343 ± 0.067 |
| FKFGVFDFRFLC | 0.451 ± 0.063 | 0.686 ± 0.031 | 0.623 ± 0.011 | 0.7617 ± 0.0049 | 0.0716 ± 0.0051 | 0.0879 ± 0.036 | 0.115 ± 0.031 | 0.109 ± 0.06 |
| FLFFLFVVFVFV | 0.256 ± 0.041 | 0.35 ± 0.046 | 0.305 ± 0.022 | 0.379 ± 0.0046 | 0.323 ± 0.015 | 0.286 ± 0.013 | 0.3692 ± 0.0023 | 0.41 ± 0.07 |
| FLFFRFLVGCCF | 0.406 ± 0.0083 | 0.396 ± 0.0095 | 0.339 ± 0.032 | 0.4545 ± 0.0039 | 0.29943 ± 0.00022 | 0.311 ± 0.0085 | 0.427 ± 0.017 | 0.3731 ± 0.003 |
| FLIFFVCLFRWK | 0.185 ± 0.0059 | 0.243 ± 0.0062 | 0.231 ± 0.023 | 0.3191 ± 0.0023 | 0.21 ± 0.025 | 0.235 ± 0.029 | 0.301 ± 0.0041 | 0.328 ± 0.0066 |

| Sequence | protein stability index (Saccharomyces cerevisiae [1]; [3]) | protein stability index (Saccharomyces cerevisiae [1]; [4]) | protein stability index (Saccharomyces cerevisiae [1]; [5]) | protein stability index (Saccharomyces cerevisiae [1]; [6]) | protein stability index (Saccharomyces cerevisiae [1]; [7]) | protein stability index (Saccharomyces cerevisiae [1]; [8]) | protein stability index (Saccharomyces cerevisiae [1]; [9]) | protein stability index (Saccharomyces cerevisiae [2]) |
| --- | --- | --- | --- | --- | --- | --- | --- | --- |
| FLLLDFMLVSLV | 0.498 ± 0.015 | 0.5175 ± 0.0029 | 0.404 ± 0.022 | 0.543 ± 0.011 | 0.371 ± 0.029 | 0.412 ± 0.036 | 0.521 ± 0.037 | 0.483 ± 0.011 |
| FLLLVVYVSLYS | 0.143 ± 0.0068 | 0.207 ± 0.039 | 0.183 ± 0.033 | 0.2973 ± 0.00095 | 0.133 ± 0.0063 | 0.156 ± 0.032 | 0.224 ± 0.034 | 0.216 ± 0.1 |
| FLLSFFGLVFFW | 0.39 ± 0.029 | 0.437 ± 0.0046 | 0.37 ± 0.018 | 0.446 ± 0.0048 | 0.397 ± 0.0073 | 0.374 ± 0.014 | 0.449 ± 0.024 | 0.397 ± 0.0048 |
| FLPLFFLPCLSV | 0.363 ± 0.0091 | 0.372 ± 0.031 | 0.318 ± 0.011 | 0.431 ± 0.015 | 0.315 ± 0.011 | 0.319 ± 0.019 | 0.413 ± 0.0059 | 0.361 ± 0.022 |
| FLSPPPFLALLP | 0.7 ± 0.03 | 0.758 ± 0.022 | 0.675 ± 0.015 | 0.76275 ± 0.00029 | 0.691 ± 0.028 | 0.6908 ± 0.0045 | 0.717 ± 0.014 | 0.723 ± 0.023 |
| FLSRHFLFLSFV | 0.467 ± 0.036 | 0.489 ± 0.047 | 0.505 ± 0.019 | 0.6779 ± 0.0061 | 0.4114 ± 0.0017 | 0.308 ± 0.031 | 0.443 ± 0.006 | 0.409 ± 0.016 |
| FPFHSRPCLPVL | 0.567 ± 0.0099 | 0.576 ± 0.11 | 0.475 ± 0.025 | 0.622 ± 0.041 | 0.4581 ± 0.0044 | 0.471 ± 0.012 | 0.5723 ± 0.0015 | 0.518 ± 0.056 |
| FPTLVRKFINAI | 0.448 ± 0.024 | 0.629 ± 0.052 | 0.56 ± 0.016 | 0.6825 ± 0.0019 | 0.0802 ± 0.011 | 0.0817 ± 0.014 | 0.123 ± 0.018 | 0.13 ± 0.0092 |
| FRRSFPFPLFLR | 0.105 ± 0.014 | 0.0555 ± 0.0048 | 0.196 ± 0.031 | 0.238 ± 0.03 | 0.696 ± 0.04 | 0.197 ± 0.045 | 0.219 ± 0.0033 | 0.232 ± 0.12 |
| FSCRRISFFLLV | 0.525 ± 0.014 | 0.676 ± 0.039 | 0.536 ± 0.043 | 0.628 ± 0.017 | 0.179 ± 0.011 | 0.176 ± 0.012 | 0.26 ± 0.015 | 0.182 ± 0.05 |
| FSPLVCLLFFLF | 0.492 ± 0.031 | 0.565 ± 0.018 | 0.424 ± 0.017 | 0.5725 ± 0.00062 | 0.32 ± 0.0052 | 0.333 ± 0.019 | 0.4778 ± 0.0016 | 0.3938 ± 0.00098 |
| FSRFPFVKLSLV | 0.642 ± 0.059 | 0.731 ± 0.019 | 0.6201 ± 0.0056 | 0.70163 ± 0.00051 | 0.161 ± 0.0044 | 0.197 ± 0.048 | 0.306 ± 0.012 | 0.297 ± 0.016 |
| FSSWPFFSFYLS | 0.681 ± 0.032 | 0.689 ± 0.021 | 0.617 ± 0.036 | 0.743 ± 0.026 | 0.415 ± 0.034 | 0.392 ± 0.024 | 0.6048 ± 0.0018 | 0.518 ± 0.036 |
| FSVRLCLFVWGC | 0.399 ± 0.036 | 0.481 ± 0.033 | 0.341 ± 0.028 | 0.4684 ± 0.004 | 0.305 ± 0.0062 | 0.317 ± 0.015 | 0.4483 ± 0.0025 | 0.436 ± 0.1 |
| FSYFFIFFYMVC | 0.207 ± 0.029 | 0.257 ± 0.042 | 0.234 ± 0.043 | 0.378 ± 0.038 | 0.152 ± 0.01 | 0.147 ± 0.035 | 0.228 ± 0.0028 | 0.238 ± 0.0085 |
| FVGVVCILWLVG | 0.177 ± 0.0044 | 0.33 ± 0.0064 | 0.252 ± 0.022 | 0.405 ± 0.0085 | 0.153 ± 0.017 | 0.176 ± 0.026 | 0.318 ± 0.073 | 0.356 ± 0.011 |
| FVLFSIFHFFLW | 0.424 ± 0.084 | 0.438 ± 0.039 | 0.362 ± 0.051 | 0.528 ± 0.041 | 0.356 ± 0.0048 | 0.347 ± 0.016 | 0.47 ± 0.0094 | 0.382 ± 0.027 |
| FVLSLGQLVFIF | 0.552 ± 0.03 | 0.5818 ± 0.0051 | 0.421 ± 0.028 | 0.607 ± 0.018 | 0.381 ± 0.0082 | 0.397 ± 0.029 | 0.548 ± 0.013 | 0.445 ± 0.016 |
| FVSAFVCLLCLV | 0.58 ± 0.041 | 0.6283 ± 0.006 | 0.509 ± 0.0073 | 0.615 ± 0.0078 | 0.357 ± 0.013 | 0.377 ± 0.016 | 0.4877 ± 0.00084 | 0.4919 ± 0.004 |

From the supplement of paper PMC10724198
